Data on one molecule can be found in publication PMC9482650, “Quantitative fragmentomics allow affinity mapping of interactomes” (Nature Communications, 2022).

Targets include AHNAK2, Q8IVF2; MAGI3_6, Q5TCQ9; CARD14, Q9BXL6; MAGI1_5, Q96QZ7; LNX1_4, Q8TBB1; DLG2_1, Q15700; LIMK1, P53667; MAGIX, Q9H6Y5; IL16_2, Q14005.
What all share (test): holdup assay
Holding throughout (settings): plain residues with an end cap or a label only (N-terminal biotin on a linker: (peg)3)

A further experiment deals with T1, MPP5, Q8N3R9.
T1 sequence (Q8N3R9 251-346, limits assumed, looked up): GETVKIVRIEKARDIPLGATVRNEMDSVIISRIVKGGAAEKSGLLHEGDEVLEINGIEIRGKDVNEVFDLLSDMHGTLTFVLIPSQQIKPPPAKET

The target of a further experiment is T2, MPDZ_7, O75970.
T2 sequence (O75970 1146-1253, limits assumed, looked up): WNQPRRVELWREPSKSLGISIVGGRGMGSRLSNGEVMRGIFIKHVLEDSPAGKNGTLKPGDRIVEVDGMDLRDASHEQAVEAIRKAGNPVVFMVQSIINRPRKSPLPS

A further experiment has as its target T3, SNTB2, Q13425.
T3 sequence (Q13425 110-208, limits assumed, looked up): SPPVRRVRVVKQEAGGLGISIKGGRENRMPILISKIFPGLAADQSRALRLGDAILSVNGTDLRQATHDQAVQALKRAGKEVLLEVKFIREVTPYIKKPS

A further experiment has as its target T4, RGS12, O14924.
T4 sequence (O14924 17-108, limits assumed, looked up): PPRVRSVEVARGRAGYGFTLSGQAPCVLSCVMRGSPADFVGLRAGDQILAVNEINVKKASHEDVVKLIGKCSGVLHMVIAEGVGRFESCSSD

The next experiment deals with T5, PARD6B, Q9BYG5.
T5 sequence (Q9BYG5 152-260, limits assumed, looked up): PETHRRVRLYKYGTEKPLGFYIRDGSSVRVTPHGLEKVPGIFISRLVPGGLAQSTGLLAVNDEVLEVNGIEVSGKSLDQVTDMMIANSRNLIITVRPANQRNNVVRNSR

In a further experiment the target is T6, CNKSR1, Q969H4.
T6 sequence (Q969H4 191-295, limits assumed, looked up): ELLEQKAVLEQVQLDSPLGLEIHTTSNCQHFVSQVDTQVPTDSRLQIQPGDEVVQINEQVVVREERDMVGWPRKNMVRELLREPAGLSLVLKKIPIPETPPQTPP

The target of a further experiment is T7, PDZD4, Q76G19.
T7 sequence (Q76G19 125-224, limits assumed, looked up): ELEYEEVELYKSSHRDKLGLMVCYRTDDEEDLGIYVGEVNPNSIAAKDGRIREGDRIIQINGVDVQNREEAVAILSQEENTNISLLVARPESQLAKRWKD

In another experiment the target is T8, PDZD2_5, O15018.
T8 sequence (O15018 2617-2716, limits assumed, looked up): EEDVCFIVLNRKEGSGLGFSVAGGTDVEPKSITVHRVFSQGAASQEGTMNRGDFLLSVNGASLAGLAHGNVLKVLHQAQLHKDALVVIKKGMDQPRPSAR

In the next experiment the target is T9, MPDZ_2, O75970.
T9 sequence (O75970 252-347, limits assumed, looked up): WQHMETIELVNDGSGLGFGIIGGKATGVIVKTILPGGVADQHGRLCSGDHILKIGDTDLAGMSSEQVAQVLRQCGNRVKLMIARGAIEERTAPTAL

The target in another experiment is T10, MPDZ_11, O75970.
T10 sequence (O75970 1720-1817, limits assumed, looked up): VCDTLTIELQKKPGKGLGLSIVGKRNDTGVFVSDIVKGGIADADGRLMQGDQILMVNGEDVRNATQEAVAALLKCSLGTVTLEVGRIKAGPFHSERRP

The target of a further experiment is T11, APBA3_2, O96018.
T11 sequence (O96018 480-570, limits assumed, looked up): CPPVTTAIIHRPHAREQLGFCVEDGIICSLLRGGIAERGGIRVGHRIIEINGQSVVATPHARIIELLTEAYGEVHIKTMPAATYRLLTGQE

In a further experiment the target is T12, PDZD11, Q5EBL8.
T12 sequence (Q5EBL8 42-139, limits assumed, looked up): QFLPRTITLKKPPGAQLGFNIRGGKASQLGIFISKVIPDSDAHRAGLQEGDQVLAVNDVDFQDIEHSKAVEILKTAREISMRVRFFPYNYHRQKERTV

A further experiment deals with T13, PREX2_2, Q70Z35.
T13 sequence (Q70Z35 672-764, limits assumed, looked up): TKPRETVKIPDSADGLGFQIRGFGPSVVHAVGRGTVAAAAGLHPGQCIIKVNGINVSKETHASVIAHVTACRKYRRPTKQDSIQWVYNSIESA

In a further experiment the target is T14, PDZD2_6, O15018.
T14 sequence (O15018 2745-2839, limits assumed, looked up): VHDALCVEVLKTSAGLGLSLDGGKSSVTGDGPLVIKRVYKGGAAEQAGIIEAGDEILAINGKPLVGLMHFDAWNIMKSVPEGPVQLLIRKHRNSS

IL16_2, Q14005, sequence (Q14005 350-450): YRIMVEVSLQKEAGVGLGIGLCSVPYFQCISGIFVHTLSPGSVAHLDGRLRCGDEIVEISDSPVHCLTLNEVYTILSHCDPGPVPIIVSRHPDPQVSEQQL
MAGI1_5, Q96QZ7, sequence (Q96QZ7 986-1098): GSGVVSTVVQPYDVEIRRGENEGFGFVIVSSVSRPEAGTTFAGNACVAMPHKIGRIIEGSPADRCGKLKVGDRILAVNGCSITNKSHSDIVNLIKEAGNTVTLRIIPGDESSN
LNX1_4, Q8TBB1, sequence (Q8TBB1 631-726): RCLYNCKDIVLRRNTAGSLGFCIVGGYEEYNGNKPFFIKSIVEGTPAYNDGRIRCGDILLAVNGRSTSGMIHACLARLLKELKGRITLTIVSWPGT
AHNAK2, Q8IVF2, sequence (Q8IVF2 108-193): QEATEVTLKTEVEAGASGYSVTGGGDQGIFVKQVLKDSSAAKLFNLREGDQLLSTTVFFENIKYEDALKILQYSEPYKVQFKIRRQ
CARD14, Q9BXL6, sequence (Q9BXL6 558-663): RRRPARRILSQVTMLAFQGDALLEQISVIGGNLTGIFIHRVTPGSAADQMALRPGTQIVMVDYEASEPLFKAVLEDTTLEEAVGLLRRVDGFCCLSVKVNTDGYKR
LIMK1, P53667, sequence (P53667 155-268): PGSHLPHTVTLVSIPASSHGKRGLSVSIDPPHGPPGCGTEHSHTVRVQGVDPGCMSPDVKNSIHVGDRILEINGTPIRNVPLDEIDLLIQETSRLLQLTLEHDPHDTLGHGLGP
MAGIX, Q9H6Y5, sequence (Q9H6Y5 118-211): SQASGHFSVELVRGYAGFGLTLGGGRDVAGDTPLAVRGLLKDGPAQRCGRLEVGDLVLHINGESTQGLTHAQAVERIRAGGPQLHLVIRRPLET
MAGI3_6, Q5TCQ9, sequence (Q5TCQ9 1014-1103): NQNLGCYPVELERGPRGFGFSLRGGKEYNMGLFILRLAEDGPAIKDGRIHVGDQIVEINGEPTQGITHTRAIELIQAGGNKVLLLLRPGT

As usually defined, the pKd is the Kd on a negative log10 scale, so that one unit is a factor of ten. NLNSSEGVPDLLV [SARS-CoV-E, P59637]: the pKd entry with AHNAK2, Q8IVF2 is listed as “below the threshold”; with MAGI3_6, Q5TCQ9 it was “below the threshold”; with MPP5, Q8N3R9, “below the threshold”; with MPDZ_7, O75970, “below the threshold”; with CARD14, Q9BXL6 it was “below the threshold”; in the experiment with SNTB2, Q13425, “below the threshold”. Moreover, the pKd entry with MAGI1_5, Q96QZ7 is recorded as “below the threshold”; with RGS12, O14924, “below the threshold”; with PARD6B, Q9BYG5, “below the threshold”; with CNKSR1, Q969H4, “below the threshold”; in the experiment with LNX1_4, Q8TBB1, “below the threshold”; in the experiment with PDZD4, Q76G19, “below the threshold”. For the same molecule, the pKd result was “below the threshold” with PDZD2_5, O15018; “below the threshold” with DLG2_1, Q15700; “below the threshold” in the experiment with MPDZ_2, O75970; “below the threshold” with MPDZ_11, O75970; “below the threshold” with APBA3_2, O96018; “below the threshold” with PDZD11, Q5EBL8. In addition, the pKd entry with PREX2_2, Q70Z35 is “below the threshold”; with PDZD2_6, O15018, 4.26; with LIMK1, P53667, “below the threshold”; in the experiment with MAGIX, Q9H6Y5, “below the threshold”; with IL16_2, Q14005, “below the threshold”.
